Experimental data from patent publication US20180155451A1 (published 2018).

T1: FcγRIIa R (human FcγRIIa, allotype R, Arg at position 131), extracellular domain with C-terminal His tag (human, UniProt P12318 34-217)
T1 construct: extracellular domain; expressed in FreeStyle293 cells; analyte in Biacore; also called 2aR; FcgRIIa R
T1 sequence (looked up): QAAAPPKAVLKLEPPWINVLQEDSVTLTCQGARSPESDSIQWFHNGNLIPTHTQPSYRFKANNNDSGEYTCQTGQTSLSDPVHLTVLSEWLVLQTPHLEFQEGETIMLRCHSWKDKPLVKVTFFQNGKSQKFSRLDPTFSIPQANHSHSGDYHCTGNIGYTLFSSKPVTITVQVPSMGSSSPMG

T2: FcγRIIb (human, UniProt P31994 43-217)
T2 construct: extracellular domain; also called FcgRIIb; 2b; not shown: His tag at the C terminus
T2 sequence (looked up): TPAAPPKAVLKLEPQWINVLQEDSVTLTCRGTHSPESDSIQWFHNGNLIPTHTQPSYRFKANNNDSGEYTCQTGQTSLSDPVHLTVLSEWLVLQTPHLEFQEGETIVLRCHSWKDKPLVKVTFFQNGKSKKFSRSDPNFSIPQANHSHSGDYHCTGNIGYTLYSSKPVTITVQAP

T3: FcγRIIb extracellular domain with C-terminal His tag (human, UniProt P31994 43-217)
T3 construct: extracellular domain; Expressed in FreeStyle293 cells and used as the analyte in Biacore; also called FcgRIIb; 2b; not shown: His tag attached to the C terminus
T3 sequence (looked up): T2 sequence (looked up)

B1: GpH7-A5/GpH7-B3 variant S337_02A/GpL16-k0 (antibody, human IgG1, kappa)
heavy 1: not shown
heavy 2: not shown
light: DIVMTQSPLSLPVTPGEPASISCQASESLVHSNRNTYLHWYLQKPGQSPQLLIYKVSNRFSGVPDRFSGSGSGTDFTLKISRVEAEDVGVYYCSQNTHVPPTFGQGTKVEIERTVAAPSVFIFPPSDEQLKSGTASVVCLLNNFYPREAKVQWKVDNALQSGNSQESVTEQDSKDSTYSLSSTLTLSKADYEKHKVYACEVTHQGLSSPVTKSFNRGEC
notes: heterodimerized antibody, mutation in one H chain only; also called He Ab
B2: GpH7-A5/GpH7-B3 variant P271_09D/GpL16-k0 (antibody, human IgG1, kappa)
heavy 1: not shown
heavy 2: not shown
light: B1 light
notes: as for B1
B3: GpH7-A5/GpH7-B3 variant S298_08L/GpL16-k0 (antibody, human IgG1, kappa)
heavy 1: not shown
heavy 2: not shown
light: B1 light
notes: as for B1
B4: GpH7-A5/GpH7-B3 variant P238_19Q/GpL16-k0 (antibody, human IgG1, kappa)
heavy 1: not shown
heavy 2: not shown
light: B1 light
notes: as for B1
B5: GpH7-A5/GpH7-B3 variant P271_10E/GpL16-k0 (antibody, human IgG1, kappa)
heavy 1: not shown
heavy 2: not shown
light: B1 light
notes: as for B1
B6: GpH7-A5/GpH7-B3 variant S324_04F/GpL16-k0 (antibody, human IgG1, kappa)
heavy 1: not shown
heavy 2: not shown
light: B1 light
notes: as for B1
B7: GpH7-A5/GpH7-B3 variant S267_06M/GpL16-k0 (antibody, human IgG1, kappa)
heavy 1: not shown
heavy 2: not shown
light: B1 light
notes: as for B1
B8: GpH7-A5/GpH7-B3 variant S298_06M/GpL16-k0 (antibody, human IgG1, kappa)
heavy 1: not shown
heavy 2: not shown
light: B1 light
notes: as for B1
B9: GpH7-A5/GpH7-B3 variant P238_20W/GpL16-k0 (antibody, human IgG1, kappa)
heavy 1: not shown
heavy 2: not shown
light: B1 light
notes: as for B1
B10: GpH7-A5/GpH7-B3 variant S267_09D/GpL16-k0 (antibody, human IgG1, kappa)
heavy 1: not shown
heavy 2: not shown
light: B1 light
notes: as for B1
B11: GpH7-A5/GpH7-B3 variant P238_15Y/GpL16-k0 (antibody, human IgG1, kappa)
heavy 1: not shown
heavy 2: not shown
light: B1 light
notes: as for B1
B12: GpH7-A5/GpH7-B3 variant P331_03V/GpL16-k0 (antibody, human IgG1, kappa)
heavy 1: not shown
heavy 2: not shown
light: B1 light
notes: as for B1
B13: GpH7-A5/GpH7-B3 variant S267_19Q/GpL16-k0 (antibody, human IgG1, kappa)
heavy 1: not shown
heavy 2: not shown
light: B1 light
notes: as for B1
B14: GpH7-A5/GpH7-B3 variant P238_10E/GpL16-k0 (antibody, human IgG1, kappa)
heavy 1: not shown
heavy 2: not shown
light: B1 light
notes: as for B1
B15: GpH7-A5/GpH7-B3 variant S324_06M/GpL16-k0 (antibody, human IgG1, kappa)
heavy 1: not shown
heavy 2: not shown
light: B1 light
notes: as for B1
B16: GpH7-A5/GpH7-B3 variant P238_16H/GpL16-k0 (antibody, human IgG1, kappa)
heavy 1: not shown
heavy 2: not shown
light: B1 light
notes: as for B1
B17: GpH7-A5/GpH7-B3 variant S267_10E/GpL16-k0 (He Ab) (antibody, human IgG1, kappa)
heavy 1: not shown
heavy 2: not shown
light: B1 light
notes: Anti-glypican-3 heterodimerized IgG1 antibody; the mutation stands in only one H chain (the GpH7-B3 chain); also called S267E in one H chain
B18: GpH7-A5/GpH7-B3 variant H268_01G/GpL16-k0 (He Ab) (antibody, human IgG1, kappa)
heavy 1: not shown
heavy 2: not shown
light: B1 light
notes: Anti-glypican-3 heterodimerized IgG1 antibody; the mutation stands in only one H chain (the GpH7-B3 chain); also called H268G in one H chain
B19: GpH7-A5/GpH7-B3 variant H268_02A/GpL16-k0 (He Ab) (antibody, human IgG1, kappa)
heavy 1: not shown
heavy 2: not shown
light: B1 light
notes: Anti-glypican-3 heterodimerized IgG1 antibody; the mutation stands in only one H chain (the GpH7-B3 chain); also called H268A in one H chain
B20: GpH7-A5/GpH7-B3 variant H268_13S/GpL16-k0 (antibody, human IgG1, kappa)
heavy 1: not shown
heavy 2: not shown
light: B1 light
notes: heterodimerized IgG1; alteration in the GpH7-B3 H chain only; also called He Ab
B21: GpH7-A5/GpH7-B3 variant K326_20W/GpL16-k0 (antibody, human IgG1, kappa)
heavy 1: not shown
heavy 2: not shown
light: B1 light
notes: as for B20
B22: GpH7-A5/GpH7-B3 variant K326_07I/GpL16-k0 (antibody, human IgG1, kappa)
heavy 1: not shown
heavy 2: not shown
light: B1 light
notes: as for B20
B23: GpH7-A5/GpH7-B3 variant K326_06M/GpL16-k0 (antibody, human IgG1, kappa)
heavy 1: not shown
heavy 2: not shown
light: B1 light
notes: as for B20
B24: GpH7-A5/GpH7-B3 variant K326_03V/GpL16-k0 (antibody, human IgG1, kappa)
heavy 1: not shown
heavy 2: not shown
light: B1 light
notes: as for B20
B25: GpH7-A5/GpH7-B3 variant K326_15Y/GpL16-k0 (antibody, human IgG1, kappa)
heavy 1: not shown
heavy 2: not shown
light: B1 light
notes: as for B20
B26: GpH7-A5/GpH7-B3 variant K326_08L/GpL16-k0 (antibody, human IgG1, kappa)
heavy 1: not shown
heavy 2: not shown
light: B1 light
notes: as for B20
B27: GpH7-A5/GpH7-B3 variant K326_19Q/GpL16-k0 (antibody, human IgG1, kappa)
heavy 1: not shown
heavy 2: not shown
light: B1 light
notes: as for B20
B28: GpH7-A5/GpH7-B3 variant K326_09D/GpL16-k0 (antibody, human IgG1, kappa)
heavy 1: not shown
heavy 2: not shown
light: B1 light
notes: as for B20
B29: GpH7-A5/GpH7-B3 variant P271_01G/GpL16-k0 (antibody, human IgG1, kappa)
heavy 1: not shown
heavy 2: not shown
light: B1 light
notes: as for B20
B30: GpH7-A5/GpH7-B3 variant K326_10E/GpL16-k0 (antibody, human IgG1, kappa)
heavy 1: not shown
heavy 2: not shown
light: B1 light
notes: as for B20
B31: GpH7-A5/GpH7-B3 variant K326_04F/GpL16-k0 (antibody, human IgG1, kappa)
heavy 1: not shown
heavy 2: not shown
light: B1 light
notes: as for B20
B32: GpH7-A5/GpH7-B3 variant K326_14T/GpL16-k0 (antibody, human IgG1, kappa)
heavy 1: not shown
heavy 2: not shown
light: B1 light
notes: as for B20
B33: GpH7-A5/GpH7-B3 variant H268_18N/GpL16-k0 (antibody, human IgG1, kappa)
heavy 1: not shown
heavy 2: not shown
light: B1 light
notes: as for B20

molecular target: T1, FcγRIIa R (human FcγRIIa, allotype R, …); test: SPR (Biacore), relative binding vs GpH7-A5/GpH7-B3/GpL16-k0

Binder | He/Con_2aR
B1 | 105 relative, control = 100
B2 | 110 relative, control = 100
B3 | 105 relative, control = 100
B4 | 104 relative, control = 100
B5 | 103 relative, control = 100
B6 | 104 relative, control = 100
B7 | 122 relative, control = 100
B8 | 108 relative, control = 100
B9 | 117 relative, control = 100
B10 | 173 relative, control = 100
B11 | 156 relative, control = 100
B12 | 114 relative, control = 100
B13 | 135 relative, control = 100
B14 | 151 relative, control = 100
B15 | 123 relative, control = 100
B16 | 122 relative, control = 100

molecular target: T4, FcγRIIIa extracellular domain with C-terminal His tag (human, UniProt P08637 17-208); test: SPR (Biacore); relative FcγRIIIa binding divided by relative FcγRIIb binding of the same antibody
T4 construct: extracellular domain; also called FcgRIIIa; 3a; not shown: His tag attached to the C terminus
T4 sequence (P08637 17-208): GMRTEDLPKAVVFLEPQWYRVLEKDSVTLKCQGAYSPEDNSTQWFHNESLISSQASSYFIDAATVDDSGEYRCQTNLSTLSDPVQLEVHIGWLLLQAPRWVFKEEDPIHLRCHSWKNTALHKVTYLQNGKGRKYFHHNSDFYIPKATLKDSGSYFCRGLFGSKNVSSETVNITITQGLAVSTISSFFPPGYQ
Protocol: (§1) Analysis of interaction between objective antibody and the FcγR was carried out using Biacore T100 (GE Healthcare). HBS-EP+ (GE Healthcare) was used as the running buffer, and the measurement temperature was set to 25° C. Chips produced by immobilizing the antigen peptide by the amine coupling method to a Series S Sencor Chip CM5 (GE Healthcare), or alternatively, chips produced by allowing preliminarily biotinylated antigen peptides to interact with and immobilize onto a Series S Sensor Chip SA (certified) (GE Healthcare) were used. Antibodies of interest were captured onto an antigen peptide-immobilized chip, and allowed to interact to each FcγR diluted with running buffer. To regenerate and repeatedly use the chip, the antibodies captured on the chip were washed off by reacting 10 mM glycine-HCl, pH 1.5.
(§2) The FcγR-binding activity of each antibody was assessed primarily using as an indicator the FcγR-binding activity and dissociation constant for FcγR.

Binder | He_3a/2b (IIIa/IIb)
B17 | 0.24 ratio of He/Con_3a to He/Con_2b
B18 | 0.67 ratio of He/Con_3a to He/Con_2b
B19 | 0.73 ratio of He/Con_3a to He/Con_2b

molecular target: T5, FcγRIa (human, UniProt P12314 16-292); test: SPR (Biacore), antibody captured, FcγR as analyte; binding as % of GpH7-A5/GpH7-B3/GpL16-k0
T5 construct: extracellular domain; also called FcgRI; 1a; not shown: His tag at the C terminus
T5 sequence (P12314 16-292): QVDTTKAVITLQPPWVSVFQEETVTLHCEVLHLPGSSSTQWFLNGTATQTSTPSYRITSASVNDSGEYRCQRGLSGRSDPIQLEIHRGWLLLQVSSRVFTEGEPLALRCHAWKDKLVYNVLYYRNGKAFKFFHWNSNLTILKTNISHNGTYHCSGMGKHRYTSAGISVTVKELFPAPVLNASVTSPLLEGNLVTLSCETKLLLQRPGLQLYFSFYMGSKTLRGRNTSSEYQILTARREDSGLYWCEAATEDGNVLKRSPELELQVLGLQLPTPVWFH

Binder | He/Con_1a
B20 | 109 % of control
B21 | 103 % of control
B22 | 101 % of control
B23 | 102 % of control
B24 | 102 % of control
B25 | 106 % of control
B26 | 100 % of control
B27 | 102 % of control
B28 | 103 % of control
B29 | 105 % of control
B30 | 104 % of control
B31 | 102 % of control
B32 | 104 % of control
B33 | 108 % of control

molecular target: T2, FcγRIIb; test: as above

Binder | He/Con_2b
B20 | 160 % of control
B21 | 148 % of control
B22 | 199 % of control
B23 | 165 % of control
B24 | 175 % of control
B25 | 159 % of control
B26 | 177 % of control
B27 | 139 % of control
B28 | 193 % of control
B29 | 193 % of control
B30 | 200 % of control
B31 | 155 % of control
B32 | 150 % of control
B33 | 156 % of control

molecular target: T4, FcγRIIIa extracellular domain with …; test: SPR (Biacore), antibody captured on antigen peptide chip, FcγR as analyte; bound amount against control heterodimerized antibody
Protocol: as §1, §2

Binder | He/Con_3a (IIIa binding)
B17 | 91.9 relative binding activity, GpH7-A5/GpH7-B3/GpL16-k0 = 100
B18 | 96.7 relative binding activity, GpH7-A5/GpH7-B3/GpL16-k0 = 100
B19 | 122 relative binding activity, GpH7-A5/GpH7-B3/GpL16-k0 = 100

molecular target: T3, FcγRIIb extracellular domain with …; test: as above
Protocol: as §1, §2

Binder | He/Con_2b (IIb binding)
B17 | 379 relative binding activity, GpH7-A5/GpH7-B3/GpL16-k0 = 100
B18 | 144 relative binding activity, GpH7-A5/GpH7-B3/GpL16-k0 = 100
B19 | 167 relative binding activity, GpH7-A5/GpH7-B3/GpL16-k0 = 100

molecular target: T5, FcγRIa; test: SPR (Biacore); He/Con_1a (FcγRIa) divided by He/Con_2b (FcγRIIb)

Binder | Ia/IIb He_1a/2b
B20 | 0.68 ratio
B21 | 0.69 ratio
B22 | 0.51 ratio
B23 | 0.62 ratio
B24 | 0.58 ratio
B25 | 0.66 ratio
B26 | 0.57 ratio
B27 | 0.73 ratio
B28 | 0.54 ratio
B29 | 0.54 ratio
B30 | 0.52 ratio
B31 | 0.66 ratio
B32 | 0.7 ratio
B33 | 0.69 ratio
